Experimental data published in paper PMC5349899.

What was measured:
[1] = target: TGF-β2 (in the calorimeter cell); assay: ITC; ER or RER (50-110 µM) in the syringe, TGF-β2 (5-8 µM) in the cell; 10 mM sodium phosphate pH 7.4, 30 mM CHAPS; 37°C; Microcal PEAQ-ITC
[2] = target: biotinylated avi-tagged TGF-β2 (human); assay: SPR; biotinylated avi-tagged TGF-β2 or TGF-β3 captured on streptavidin-coated CM5 chip at 50-80 RU; analytes injected as two-fold dilution series in HBS-EP at 100 µL/min (150 s); BIAcore 3000; global fit to a simple 1:1 model
[3] = target: biotinylated avi-tagged TGF-β3 (human); assay: as above

Row | Kd [1] | stoichiometry N [1] | koff [2] | kon [2] | Kd [3] | koff [3] | kon [3] | Kd [2] | IC50 of inhibition of PAI-1 luciferase reporter activity in Mv1Lu mink lung epithelial cells induced with 20 pM TGF-β1 (TGF-β1) | reduction of Smad2 phosphorylation (Western blot) in MCF-10A cells stimulated with 2 pM TGF-β1 in the presence of 0, 0.01, 0.1, 1 and 10 nM ER (TGF-β1) | Substance
1 | 128 nM | 1.1 sites | 0.000253 s⁻¹ | 307000 M⁻¹ s⁻¹ | 0.0244 nM | 9.44e-06 s⁻¹ | 387000 M⁻¹ s⁻¹ |  |  |  | RER receptor trap (TβRII-betaglycan endoglin domain-TβRII) (designed binder)
2 | 215 nM | 1.05 sites | 0.000438 s⁻¹ | 307000 M⁻¹ s⁻¹ | 0.0505 nM | 1.97e-05 s⁻¹ | 391000 M⁻¹ s⁻¹ | 1.44 nM |  |  | ER receptor trap (betaglycan endoglin domain-TβRII; rat BG-human TβRII receptor fusion) (designed binder)
3 |  |  |  |  |  |  |  |  | 14 pM | 30% | bivalent TGF-β receptor trap ER (BGE-RII) (from UniProt P37173 23-166)
4 |  |  | 0.00466 s⁻¹ | 152000 M⁻¹ s⁻¹ | 94.6 nM | 0.0124 s⁻¹ | 131000 M⁻¹ s⁻¹ | 30.6 nM |  |  | betaglycan endoglin domain (BGE) (domain or fragment)
